Positions count from the first letter of the chain named.
B1: G998 (Fc fusion)
chain: EPKSCDKTHTCPPCPAPELLGGPSVFLFPPKPKDTLMISRTPEVTCVVVDVEFEDPEVKFNWYVDGVEVHNAKTKPREEQYASTYRVVSVLTVLHQDWLNGKEYKCKVTNKALPAPIEKTISKAKGQPREPQVYTLPPSRDELTKNQVSLTCLVKGFYPSDIAVEWESNGQPENNYKTTPPVLDSDGSFFLYSKLTVDKSRWQQGNVFSCSVMHEALHNHYTQKSLSLSPGKERKCCVECPPCP
B2: G997 (Fc fusion)
chain: B1 chain with A82N
B3: G996 (Fc fusion)
chain: B1 chain with G21R, A82N

Molecular target: C1q (UniProt P02745 23-245; P02746 28-253; P02747 29-245)
Sequence (P02745 23-245, chain 1 of 3): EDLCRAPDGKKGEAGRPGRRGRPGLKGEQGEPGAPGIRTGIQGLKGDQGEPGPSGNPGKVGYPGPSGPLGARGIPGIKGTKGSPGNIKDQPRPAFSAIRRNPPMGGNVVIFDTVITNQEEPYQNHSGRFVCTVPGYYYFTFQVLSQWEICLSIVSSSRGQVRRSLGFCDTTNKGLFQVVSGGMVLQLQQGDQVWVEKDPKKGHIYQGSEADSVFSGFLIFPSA
Sequence (P02746 28-253, chain 2 of 3): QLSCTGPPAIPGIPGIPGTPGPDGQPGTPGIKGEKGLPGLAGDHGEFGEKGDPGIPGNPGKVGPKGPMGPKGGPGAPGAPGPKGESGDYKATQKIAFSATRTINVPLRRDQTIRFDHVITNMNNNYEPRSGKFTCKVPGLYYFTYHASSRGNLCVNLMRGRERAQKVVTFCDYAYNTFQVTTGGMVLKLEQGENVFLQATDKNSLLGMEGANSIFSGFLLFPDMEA
Sequence (P02747 29-245, chain 3 of 3): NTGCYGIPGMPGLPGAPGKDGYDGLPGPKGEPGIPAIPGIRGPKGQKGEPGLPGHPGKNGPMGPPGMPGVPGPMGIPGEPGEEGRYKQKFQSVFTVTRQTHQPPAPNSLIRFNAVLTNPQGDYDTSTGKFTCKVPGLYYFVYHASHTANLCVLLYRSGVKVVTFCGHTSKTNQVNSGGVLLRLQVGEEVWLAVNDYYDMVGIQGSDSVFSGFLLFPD
Experiment: ELISA

Row | Binder | EC50 [µg/mL]
1 | B1 | 0.334
2 | B2 | 0.0166
3 | B3 | 0.278
